Reference: patent US20090202499A1 (University of California, published 2009)

Experiments:
[1] = molecular target: T1, purified HLA-B*0702 (human); assay: competition solid-phase radioimmunoassay on purified HLA-B7, radiolabeled standard peptide
T1 construct: Purified MHC class I molecule incubated with human b2m; complexes captured with W6/32 antibody; also called HLA-B7; immobilized purified HLA-B7 molecule
Description: Next, we assessed the actual binding avidity for HLA-B7 (HLA-B*0702). Two independent assays were used: binding stabilization assay on T2-B7 cells by flow cytometry (12) and a competitive solid-phase radioimmunoassay on immobilized purified HLA-B7 molecule (35).

[2] = molecular target: T2, purified HLA-B*5301 (human); assay: competition radioimmunoassay on purified HLA, radiolabeled standard peptide
T2 construct: Purified MHC class I molecule incubated with human b2m
Description: (§1) Supertype analysis. […] Under the conditions utilized, where [label]<[MHC] and IC₅₀≧[MHC], the measured IC₅₀ values are reasonable approximations of the true Kd values.

[3] = molecular target: T3, purified HLA-B*3501 (human); assay: as above
T3 construct: Purified MHC class I molecule incubated with human b2m
Description: as §1

[4] = molecular target: T1, purified HLA-B*0702; assay: as above
Description: as §1

[5] = molecular target: T4, purified HLA-B*5401 (human); assay: as above
T4 construct: Purified MHC class I molecule incubated with human b2m; also called B*54011
Description: as §1

[6] = molecular target: T5, purified HLA-B*0801 (human); assay: as above
T5 construct: Purified MHC class I molecule incubated with human b2m; not officially part of the HLA-B7 supertype
Description: as §1

[7] = molecular target: T6, purified HLA-B*5101 (human); assay: as above
T6 construct: Purified MHC class I molecule incubated with human b2m
Description: as §1

Row | IC50 [1] [nM] | IC50 [2] [nM] | IC50 [3] [nM] | IC50 [4] [nM] | IC50 [5] [nM] | IC50 [6] [nM] | IC50 [7] [nM] | Binder
1 | 11 | 2.4 | 5 | 11 | 19900 | 74 | 1620 | LPSDFKTIL (Synthetic 9mer peptide of human telomerase reverse transcriptase) [hTRT peptide p1123 (LPSDFKTIL)]
2 | 0.96 | 120 | – | 0.96 | – | 192 | – | LPGTTLTAL (Synthetic 9mer peptide of human telomerase reverse transcriptase) [hTRT peptide p1107 (LPGTTLTAL)]

Second part, the binder before the results:

Row | Binder | IC50 [1] [nM] | IC50 [2] [nM] | IC50 [3] [nM] | IC50 [4] [nM] | IC50 [5] [nM] | IC50 [6] [nM] | IC50 [7] [nM]
3 | AGRNMRRKL (Synthetic 9mer peptide of human telomerase reverse transcriptase) [hTRT peptide p966 (AGRNMRRKL)] | – | – | – | – | 34100 | – | –
4 | DPRRLVQLL (Synthetic 9mer peptide of human telomerase reverse transcriptase) [hTRT peptide p444 (DPRRLVQLL)] | – | – | – | – | 21900 | – | –
5 | RPSFLLSSL (Synthetic 9mer peptide of human telomerase reverse transcriptase) [hTRT peptide p342 (RPSFLLSSL)] | – | – | – | – | 12600 | – | –
6 | FVRACLRRL (Synthetic 9mer peptide of human telomerase reverse transcriptase) [hTRT peptide p464 (FVRACLRRL)] | 4.1 | – | – | 4.1 | 18800 | 123 | –
